Experimental data taken from IntAct's records for PubMed 17586626.

B1: Multidrug resistance protein MexB (Pseudomonas aeruginosa (strain ATCC 15692 / PAO1 / 1C / PRS 101 / LMG 12228)), P52002 (parent)
chain: MSKFFIDRPIFAWVIALVIMLAGGLSILSLPVNQYPAIAPPAIAVQVSYPGASAETVQDTVVQVIEQQMNGIDNLRYISSESNSDGSMTITVTFEQGTDPDIAQVQVQNKLQLATPLLPQEVQRQGIRVTKAVKNFLMVVGVVSTDGSMTKEDLSNYIVSNIQDPLSRTKGVGDFQVFGSQYSMRIWLDPAKLNSYQLTPGDVSSAIQAQNVQISSGQLGGLPAVKGQQLNATIIGKTRLQTAEQFENILLKVNPDGSQVRLKDVADVGLGGQDYSINAQFNGSPASGIAIKLATGANALDTAKAIRQTIANLEPFMPQGMKVVYPYDTTPVVSASIHEVVKTLGEAILLVFLVMYLFLQNFRATLIPTIAVPVVLLGTFGVLAAFGFSINTLTMFGMVLAIGLLVDDAIVVVENVERVMAEEGLSPREAARKSMGQIQGALVGIAMVLSAVFLPMAFFGGSTGVIYRQFSITIVSAMALSVIVALILTPALCATMLKPIEKGDHGEHKGGFFGWFNRMFLSTTHGYERGVASILKHRAPYLLIYVVIVAGMIWMFTRIPTAFLPDEDQGVLFAQVQTPPGSSAERTQVVVDSMREYLLEKESSSVSSVFTVTGFNFAGRGQSSGMAFIMLKPWEERPGGENSVFELAKRAQMHFFSFKDAMVFAFAPPSVLELGNATGFDLFLQDQAGVGHEVLLQARNKFLMLAAQNPALQRVRPNGMSDEPQYKLEIDDEKASALGVSLADINSTVSIAWGSSYVNDFIDRGRVKRVYLQGRPDARMNPDDLSKWYVRNDKGEMVPFNAFATGKWEYGSPKLERYNGVPAMEILGEPAPGLSSGDAMAAVEEIVKQLPKGVGYSWTGLSYEERLSGSQAPALYALSLLVVFLCLAALYESWSIPFSVMLVVPLGVIGALLATSMRGLSNDVFFQVGLLTTIGLSAKNAILIVEFAKELHEQGKGIVEAAIEACRMRLRPIVMTSLAFILGVVPLAISTGAGSGSQHAIGTGVIGGMVTATVLAIFWVPLFYVAVSTLFKDEASKQQASVEKGQ
partner: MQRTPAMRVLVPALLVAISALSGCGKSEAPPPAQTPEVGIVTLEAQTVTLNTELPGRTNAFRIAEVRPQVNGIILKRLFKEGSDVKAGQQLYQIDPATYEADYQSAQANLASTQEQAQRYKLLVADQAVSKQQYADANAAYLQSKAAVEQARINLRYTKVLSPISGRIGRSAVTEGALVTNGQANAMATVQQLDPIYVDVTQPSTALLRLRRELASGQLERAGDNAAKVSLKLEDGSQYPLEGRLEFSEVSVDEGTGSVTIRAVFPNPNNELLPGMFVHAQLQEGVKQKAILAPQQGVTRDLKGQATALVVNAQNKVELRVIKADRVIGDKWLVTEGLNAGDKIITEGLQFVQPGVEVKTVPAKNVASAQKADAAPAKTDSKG
B2: Multidrug resistance protein MexA (Pseudomonas aeruginosa (strain ATCC 15692 / PAO1 / 1C / PRS 101 / LMG 12228)), P52477 (parent)
chain: B1 partner
partner: B1 chain

Variants of: B1
Conditions: with mexa_pseae mexA, P52477

Variant | effect of a mutation on the interaction
G220S | decreasing interaction strength

Variants of: B2
Conditions: with mexb_pseae mexB, P52002

Variant | effect of a mutation on the interaction
V259F | increasing interaction strength
V66M | increasing interaction strength
